Source: PMC3945115 (Free radical biology & medicine, 2013)
Positions count from the first letter of the chain named. In names and notes the source's numbering stands.

Tests used:
SEC [1] = target: the molecule itself; test: SEC
SEC [2] = target: the molecule itself; test: SEC; remark: listed apart in the source
[3] = target: the molecule itself; test: cell-based or functional assay

B1: S167D-catalase (phospho-mimic mutant of human catalase) (enzyme, UniProt P04040 1-527, looked up)
chain: MADSRDPASDQMQHWKEQRAAQKADVLTTGAGNPVGDKLNVITVGPRGPLLVQDVVFTDEMAHFDRERIPERVVHAKGAGAFGYFEVTHDITKYSKAKVFEHIGKKTPIAVRFSTVAGESGSADTVRDPRGFAVKFYTEDGNWDLVGNNTPIFFIRDPILFPSFIHDQKRNPQTHLKDPDMVWDFWSLRPESLHQVSFLFSDRGIPDGHRHMNGYGSHTFKLVNANGEAVYCKFHYKTDQGIKNLSVEDAARLSQEDPDYGIRDLFNAIATGKYPSWTFYIQVMTFNQAETFPFNPFDLTKVWPHKDYPLIPVGKLVLNRNPVNYFAEVEQIAFDPSNMPPGIEASPDKMLQGRLFAYPDTHRHRLGPNYLHIPVNCPYRARVANYQRDGPMCMQDNQGGAPNYYPNSFGAPEQQPSALEHSIQYSGEVRRFNTANDDNVTQVRAFYVNVLNEEQRKRLCENIAGHLKDAQIFIQKKAVKNFTEVHPDYGSHIQALLDKYNAEKPKNAIHTFVQSGSHLAAREKANL
Dimer (%) (SEC [1]): 9.2%
Tetramer (%) (SEC [1]): 44.4%
stoichiometry N (SEC [2]): 4
rate of H2O2 decomposition by the purified protein, against wildtype catalase [3]: 2 fold

B2: recombinant human wildtype catalase (enzyme, UniProt P04040 1-527, looked up)
chain: B1 chain with D167S
Dimer (%) (SEC [1]): 53%
Tetramer (%) (SEC [1]): 4.78%
stoichiometry N (SEC [2]): 2

B3: recombinant human wildtype catalase incubated with PKCδ (phosphorylated at S167) (enzyme, UniProt P04040 1-527, looked up)
chain: B1 chain with D167S
modifications: phosphoserine at 167
Dimer (%) (SEC [1]): 6.23%
Tetramer (%) (SEC [1]): 51.8%
stoichiometry N (SEC [2]): 4
